This is an account of results in patent US20260207759A1, “COMPOSITION OF CD40-BINDING MOLECULE AND PHARMACEUTICAL USE THEREOF” (SUZHOU SUNCADIA BIOPHARMACEUTICALS CO., LTD., priority 2022, published 2026).

Usually IC50 stands for the concentration that gives 50% inhibition. What is called EC50 is the midpoint of the concentration-response curve. Read a high EC50 as a less potent agent.

For data set [1] the following is noted: mouse, in vivo, ip, 10 mg/kg.
Description: After arrival, the animals were acclimatized for 7 days and randomly grouped. On day 0 of the experiment, each group of mice was intraperitoneally injected with the anti-CD40 antibody at 10 mg/kg. 100-150 μL of blood samples were collected at 15 min, 4 h, and 8 h after administration, and on days 1, 2, 4, 7, 10, and 14 after administration, anticoagulated with 10 μL of EDTA-K2 (0.1 M), and stored on ice. Mouse plasma was assayed by ELISA for antibody concentration at different time points. The assay is specifically as follows: A goat anti-human IgG Fc antibody (Rockland, Cat. #609-101-017) was diluted to 2.5 μg/mL with PBS and added to a 96-well plate at 50 μL/well, and the plate was incubated overnight at 4° C. After three washes with a washing buffer, 50 μL of blocking solution was added to each well, and the plate was incubated at 37° C. for 1 h. The mouse plasma and the standard curve of the test antibody were added, and the plate was incubated at 37° C. for 2 h. After three washes with the washing buffer, anti-hlgG Fab-HRP (Sigma, Cat. #A0293, 1:10,000) was added at 50 μL/well, and the plate was incubated at room temperature for 1 h. The plate was washed three times with the washing buffer. TMB was added at 100 μL/well, and the mixtures were left to react in the dark for 5 min. 0.16 M sulfuric acid was added at 100 μL/well. The OD value at 450 nm was measured with an Envision microplate reader, and the concentrations of CD40 antagonistic antibodies were calculated.
Data set [2] has as its system human CD40 transgenic mice. Briefly: Mouse T cell-dependent humoral immune response (TDAR) model, anti-KLH specific IgG. It is filed as in vivo. The following applies: 0.3 mpk BIW ip, hCD40 transgenic mice (IgG1 control 1 mg/kg). Here is the method: On day 0 of the experiment, one of the mice in each group was subjected to blood collection followed by intraperitoneal injection. On day 1, each mouse was intraperitoneally injected with 50 μg of KLH (KLH:complete Freund's adjuvant (CFA)=1:1 emulsified immune complex) for immunization. On day 15 of the experiment, each mouse was intraperitoneally injected with 50 μg of KLH (KLH:incomplete Freund's adjuvant (IFA)=1:1 emulsified immune complex) for a second immunization. Each group was intraperitoneally injected twice a week, and blood samples of about 150 μL were collected from the orbital venous plexus on days 7, 14, 21, and 28. Whole blood was left to stand at room temperature for 1-4 h and centrifuged at 7000 rpm at 4° C. for 10 min to separate serum, and the serum was stored at −80° C. for later use.
Mouse serum was separated weekly and assayed by ELISA for the anti-KLH specific IgG level.

Data set [3] addresses T1, CD40 (Homo sapiens, UniProt P25942). Briefly: B cell activation assay system (human PBMCs, CD40L-induced CD19+CD69+). Type of data set: cell-based. Also on record: endogenous in cells; host or cells: human PBMCs (B cells); DCs differentiated from human CD14+ monocytes. The note with it: CD40L stimulation overnight. Here is the method:
CD40 is highly expressed in B cells, and CD40L, upon binding to CD40, can induce B cell activation and up-regulate the expression of a series of activation markers. CD40 antagonistic antibodies block the binding of CD40L to CD40, thereby eliminating the immune activation process of B cells.
Human PBMCs were plated at 2E5 cells/well and 50 μL/well into a 96-well cell culture plate (the medium was RPMI-1640 containing 10% FBS and 1% penicillin-streptomycin). Serially diluted test antibodies were added at 50 μL/well, and the cells were co-incubated at 37° C. in 5% CO2 for 0.5 h. CD40L-his and an anti-His antibody were added to each well for overnight stimulation. The following day, the plate was centrifuged, the supernatant was removed, and the cells were washed twice with FACS buffer and stained at room temperature for 15 min with 100 μL of Fixable viability dye EF780 (Invitrogen, 65086514) diluted at 1:1000. The cells were washed twice and then blocked at room temperature for 10 min with 100 μL of human Fc blocker (BD, 564220) diluted at 1:200. After centrifugation, the cells were incubated at 4° C. for 0.5 h with flow cytometry antibodies (PerCP/Cyanine5.5 anti-human CD19 (Biolegend, 302230), and APC anti-human CD69 (Biolegend, 310910)) diluted at 1:200. After centrifugation, the supernatant was removed, the cells were washed twice with FACS buffer and then resuspended in 200 μL of PBS, and the fluorescence intensity on the cell surface was measured by a flow cytometer (BD FACS Celesta).
With reference to the method in Example 10, the inhibitory activity of the anti-CD40 antibody 9E6-L4H2-AAYTE carrying the AAYTE mutation in the Fc in the B cell activation assay system was measured.

For data set [4], the target named is T2, Raji cell surface human CD40 (Homo sapiens, UniProt P25942).
T2 construct: Raji cells highly express human CD40 on the cell surface; endogenous in cells; host or cells: Raji cells
T2 sequence (P25942 21-277): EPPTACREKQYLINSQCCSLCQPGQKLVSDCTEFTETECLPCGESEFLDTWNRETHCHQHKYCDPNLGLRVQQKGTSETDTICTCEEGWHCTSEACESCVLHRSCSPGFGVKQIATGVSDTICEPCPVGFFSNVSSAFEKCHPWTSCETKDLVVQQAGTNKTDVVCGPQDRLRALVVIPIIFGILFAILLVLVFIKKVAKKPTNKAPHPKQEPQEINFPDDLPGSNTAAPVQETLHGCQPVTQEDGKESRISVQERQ
Briefly: FACS binding of humanized anti-CD40 antibodies to Raji cells. Here is the method:
Raji cells highly express human CD40 on the cell surface and thus can be used to detect the binding properties of CD40 antagonistic antibodies to the cell surface human CD40.
Raji cells were plated at 1.5E5 cells/well, and various concentrations of CD40 antagonistic antibodies were added. The plate was incubated at 4° C. for 1 h. After two washes with FACS buffer (PBS+2% FBS), a secondary antibody (Alexa Flour488 conjugated anti-human IgG (H+L) antibody) was added, and the plate was incubated at 4° C. for 0.5 h. After two washes with FACS buffer, the fluorescence intensity on the cell surface was measured by flow cytometry (BD FACS Celesta).
A general note: In flow cytometry, cells or beads pass a laser one at a time.

The target in data set [5] is T1, CD40. Briefly: Reporter gene cell activity of chimeric anti-CD40 antibodies (HEK-Blue CD40L cells, CD40L-induced SEAP). Also on record: host or cells: HEK-Blue CD40L cells. It is filed as cell-based. The note with it: CD40L-stimulated HEK-Blue CD40L cells. Here is the method:
HEK-Blue CD40L cells were purchased from Invivogen (Cat. #hkb-cd40). The cells were stably transfected with the human CD40 gene and the NF-kB-mediated SEAP genome. The activation level of the CD40 signaling pathway can be characterized by detecting the secreted SEAP in the supernatant using QUANTI-Blue, the substrate of SEAP. In this experiment, the in vitro antagonist activity of anti-CD40 antibodies was assessed according to IC50 by detecting the activation of HEK-Blue CD40L cells by CD40L. HEK-Blue CD40L cells were cultured in a DMEM medium containing 10% FBS, 100 μg/mL Zeocin, and 30 μg/mL Blasticidin, and passaged 2-3 times in a week at a ratio of 1:5 or 1:10. During passaging, the medium was pipetted off, and the cell layer was rinsed with 5 mL of 0.25% pancreatin. Then the pancreatin was pipetted off, the cells were digested in an incubator for 3-5 min, and then a fresh medium was added to resuspend cells. 100 μL of cell suspension was added to a 96-well cell culture plate at a density of 5×10^5 cells/mL. The medium was DMEM containing 10% FBS, 100 μg/mL Zeocin, and 30 μg/mL Blasticidin. Only 100 μL of sterile water was added to the peripheral wells of the 96-well plate. […] The absorbance at 630 nm was measured with a microplate reader (Thermo MultiSkanFc), and IC50 values were calculated and used to assess the in vitro cell activity of the anti-CD40 antibodies.
A general note: Reporter assays use an easily measured gene product as a stand-in for the process of interest.

T1 sequence (P25942 21-277): as above

Regarding “CFZ533: anti-CD40 antagonistic antibody CFZ533 (i.e., iscalimab), positive control, variable regions from U.S. Pat. No. 8,277,810B”, in data set [1], the “AUC(0-d14)((h) * (mg/L))” value was 12655 (h) * (mg/L), the “C max” value was 75.95 µg/mL and the “T1/2” value is 214.8 h. For the same substance, in data set [2], the “anti-KLH specific IgG, Day 7” value is recorded as 0.04 ± 0.01; the “anti-KLH specific IgG, Day 14” value came to 30.9 ± 10.8; the “anti-KLH specific IgG, Day 21” value was determined as 845 ± 423; the “anti-KLH specific IgG, Day 28” value was determined as 3043 ± 1600. Further, in data set [3], the “CD19+CD69+ % Maximum inhibition rate” value is reported as 95% and the “CD19+CD69+ MFI Maximum inhibition rate” value worked out at 110%. In data set [3] (read-out: CD19+CD69+ % IC50), the IC50 came out at 0.14 nM. Also, the concentration for half-maximal inhibition (IC50) in data set [3] (read-out: CD19+CD69+ MFI IC50) stood at 0.07 nM. The substance further had an EC50 in data set [4] of 1.01 nM. Besides, in data set [5], it took 0.272 nM to reach half-maximal inhibition (IC50).
